Laboratory results from US20180282410A1 (Hoffmann-La Roche, published 2018).

T1: full-length human Robo 4 (on cells) (human, UniProt Q8WZ75 28-1007)
T1 construct: also called CHO-Robo 4; Robo 4 on HUVECs
T1 sequence: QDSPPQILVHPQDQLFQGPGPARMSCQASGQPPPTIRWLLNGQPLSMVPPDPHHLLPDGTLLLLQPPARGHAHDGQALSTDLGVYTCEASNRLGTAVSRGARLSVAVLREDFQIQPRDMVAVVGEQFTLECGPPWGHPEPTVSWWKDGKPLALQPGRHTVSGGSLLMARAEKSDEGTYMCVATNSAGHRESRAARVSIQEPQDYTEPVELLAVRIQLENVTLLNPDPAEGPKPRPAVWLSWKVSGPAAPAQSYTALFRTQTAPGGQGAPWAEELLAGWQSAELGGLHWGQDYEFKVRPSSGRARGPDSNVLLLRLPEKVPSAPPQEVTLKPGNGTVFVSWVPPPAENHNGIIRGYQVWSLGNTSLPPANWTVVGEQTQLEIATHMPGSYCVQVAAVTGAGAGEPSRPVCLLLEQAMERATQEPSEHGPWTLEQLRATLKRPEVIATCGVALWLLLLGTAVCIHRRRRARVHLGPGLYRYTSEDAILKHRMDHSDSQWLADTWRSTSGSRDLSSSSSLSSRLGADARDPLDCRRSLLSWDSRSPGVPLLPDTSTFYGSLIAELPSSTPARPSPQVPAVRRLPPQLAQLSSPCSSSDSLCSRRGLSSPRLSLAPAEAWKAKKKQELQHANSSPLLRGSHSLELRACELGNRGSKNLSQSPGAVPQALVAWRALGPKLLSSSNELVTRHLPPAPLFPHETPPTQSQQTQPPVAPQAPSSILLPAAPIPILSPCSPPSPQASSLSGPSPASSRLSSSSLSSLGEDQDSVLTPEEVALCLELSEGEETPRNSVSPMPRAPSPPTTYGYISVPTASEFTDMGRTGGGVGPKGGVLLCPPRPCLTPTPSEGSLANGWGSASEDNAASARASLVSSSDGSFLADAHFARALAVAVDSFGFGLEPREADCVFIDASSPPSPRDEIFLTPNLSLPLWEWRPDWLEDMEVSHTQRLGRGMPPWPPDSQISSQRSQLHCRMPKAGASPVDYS

T2: murine (mu) Robo 4 ECD-PreS-Avi-His (mouse)
T2 construct: also called recombinant murine Robo 4; murine Robo 4
T2 chain: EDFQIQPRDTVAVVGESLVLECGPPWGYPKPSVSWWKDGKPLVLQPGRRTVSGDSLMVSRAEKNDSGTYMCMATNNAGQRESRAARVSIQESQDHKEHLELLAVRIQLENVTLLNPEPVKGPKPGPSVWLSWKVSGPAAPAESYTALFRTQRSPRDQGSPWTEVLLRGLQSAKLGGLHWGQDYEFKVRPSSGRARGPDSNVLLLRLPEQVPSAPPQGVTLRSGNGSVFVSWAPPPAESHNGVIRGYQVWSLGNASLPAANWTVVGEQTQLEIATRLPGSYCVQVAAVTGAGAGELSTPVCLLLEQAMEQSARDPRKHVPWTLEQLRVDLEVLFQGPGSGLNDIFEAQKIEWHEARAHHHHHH

T3: recombinant cynomolgus Robo 4 ECD fused to AcTEV protease recognition site, Avi- and 6xHis-tag (cynomolgus)
T3 construct: Biotinylated in the avidity assay
T3 chain: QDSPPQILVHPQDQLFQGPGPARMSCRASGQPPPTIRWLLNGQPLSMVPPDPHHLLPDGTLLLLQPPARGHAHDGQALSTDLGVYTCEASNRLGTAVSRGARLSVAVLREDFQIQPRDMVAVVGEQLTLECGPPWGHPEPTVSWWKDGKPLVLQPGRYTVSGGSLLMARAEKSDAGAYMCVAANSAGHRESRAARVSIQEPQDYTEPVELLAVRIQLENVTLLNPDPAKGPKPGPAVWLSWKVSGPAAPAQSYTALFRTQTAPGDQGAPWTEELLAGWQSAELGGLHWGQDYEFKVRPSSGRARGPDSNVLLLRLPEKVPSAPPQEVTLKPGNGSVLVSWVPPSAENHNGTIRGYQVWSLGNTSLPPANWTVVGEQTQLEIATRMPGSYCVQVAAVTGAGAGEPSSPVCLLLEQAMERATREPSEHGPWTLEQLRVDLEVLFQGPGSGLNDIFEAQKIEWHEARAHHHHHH

T4: human (hu) Robo 4 extracellular domain (ECD)-precision site (PreS)-Avi-tag (Avi)-6x histidine (His) (human)
T4 construct: it holds the ECD with PreScission site, Avi-tag and His-tag; also called recombinant human Robo 4; human Robo 4
T4 chain: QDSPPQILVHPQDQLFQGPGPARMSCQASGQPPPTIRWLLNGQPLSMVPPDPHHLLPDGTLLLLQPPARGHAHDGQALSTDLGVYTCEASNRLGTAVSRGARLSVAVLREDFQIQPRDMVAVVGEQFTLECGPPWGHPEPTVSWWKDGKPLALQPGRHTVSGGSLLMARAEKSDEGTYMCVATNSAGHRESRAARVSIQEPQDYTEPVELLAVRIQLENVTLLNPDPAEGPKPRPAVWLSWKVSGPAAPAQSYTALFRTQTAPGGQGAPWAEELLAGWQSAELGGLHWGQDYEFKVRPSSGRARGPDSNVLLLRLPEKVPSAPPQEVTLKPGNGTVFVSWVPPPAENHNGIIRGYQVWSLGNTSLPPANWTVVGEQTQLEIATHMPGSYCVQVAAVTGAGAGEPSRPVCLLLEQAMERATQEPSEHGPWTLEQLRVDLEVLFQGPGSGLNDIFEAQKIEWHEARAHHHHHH


What was measured:
[1] = biological target: T1, full-length human Robo 4 (on cells); experiment: flow cytometry on CHO cells stably expressing full-length human Robo 4
Procedure: Binding of anti-Robo 4 IgGs was tested on CHO cells stably expressing full-length human Robo 4 (CHO-Robo 4). Briefly, cells were harvested, counted and checked for viability.

[2] = biological target: T2, murine (mu) Robo 4 ECD-PreS-Avi-His; experiment: SPR Biacore T100, IgG captured via anti-human Fab, antigen as analyte
Procedure: (§1) All surface plasmon resonance (SPR) experiments are performed on a Biacore T100 at 25° C. with HBS-EP as running buffer (0.01 M HEPES pH 7.4, 0.15 M NaCl, 3 mM EDTA, 0.005% Surfactant P20 (Biacore)).
(§2) Anti Robo 4 antibodies were captured for 60 s at 50 nM. Recombinant human, murine and cynomolgus Robo 4 were passed at a concentration range from 0.46-1000 nM with a flow of 30 μl/min through the flow cells over 90 s. The dissociation was monitored for 120 s. Bulk refractive index differences were corrected for by subtracting the response obtained on a reference flow cell. Here, the antigens were flown over a surface with immobilized anti-human Fab specific antibody on which HBS-EP has been injected rather than the antibodies.
(§3) Kinetic constants were derived using the Biacore T100 Evaluation Software (vAA, Biacore), to fit rate equations for 1:1 Langmuir binding by numerical integration.

[3] = biological target: T3, recombinant cynomolgus Robo 4 ECD fused …; experiment: SPR Biacore T100, IgG captured via anti-human Fab, antigen as analyte (affinity)
Procedure: as §1, §2, §3

[4] = biological target: T4, human (hu) Robo 4 extracellular domain …; experiment: as above
Procedure: as §1, §2, §3

Binder | EC50 [1] | binding result [2] | Kd [3] | koff [3] | kon [3] | Kd [4] | koff [4] | kon [4]
7G2 anti-Robo 4 IgG (antibody, V domains shown, also called 7G2 IgG) VH: not shown VL: EIVLTQSPGTLSLSPGERATLSCRASQSVSSSYLAWYQQKPGQAPRLLIYGASSRATGIPDRFSGSGSGTDFTLTISRLEPEDFAVYYCQQGQLPPRTFGQGTKVEIK | 4.6 nM | no binding (tested: antigen 0.46-1000 nM) | 64.1 nM | 0.00116 s⁻¹ | 18100 M⁻¹ s⁻¹ | 23.4 nM | 0.00102 s⁻¹ | 43800 M⁻¹ s⁻¹
01E06 anti-Robo 4 IgG (antibody, V domains shown, also called 01E06 IgG) VH: EVQLVESGGGLSQPGNSLKLSCEASGFTFRNYDMSWVRQAPGKGLEWVAYISSGGGPIYYVDAVKGRFTISRDNAKNLLFLQMNNLRSEDTAVYYCARDLADIGVFDYWGQGTMVTVSS VL: DFKMTQSPDILSPSLGESVTITCQSSQNIYSNLAWYQQKPGEHPKLLIYTASILADGIPSRFTGSGSGTQFSLKISSLQPDDVANYYCQQYVYYRTFGPGTKLEIK | 1.1 nM | – | 0.96 nM | 8e-05 s⁻¹ | 80400 M⁻¹ s⁻¹ | 0.69 nM | 0.00033 s⁻¹ | 479000 M⁻¹ s⁻¹
01F05 anti-Robo 4 IgG (antibody, V domains shown, also called 01F05 IgG) VH: QVQLKQSGAELVKPGASVKISCKTSVYTFTYGYMHWVEQKPGQGLEWIGRIDPDSGNSMYNQKFQGRATLTRDKSSSTVYMELRSLTSEDSAVYYCARSMRYSGYRDYALDLWGQGTQVTVSS VL: QLVLTQSPSASASLGASVKLTCTLSSQHSSYGITWLQQHPDKAPKYVMYLKSDGSHTKGADIPDRFSGSSSGVHRYLSISNVQPEDEAIYFCVTYDSTHVFGSGTQLTVLG | 6.1 nM | – | 144 nM | 0.00191 s⁻¹ | 13300 M⁻¹ s⁻¹ | 15.3 nM | 0.00091 s⁻¹ | 59600 M⁻¹ s⁻¹
01F09 anti-Robo 4 IgG (antibody, V domains shown, also called 01F09 IgG) VH: QIQLQESGPGLVKPSQSLSLTCSVTGYSISSGSLWTWIRQFPGNNLEWMGYISYAGGIDYNPSLTSRISITRDTSRNQFFLQLESVTTQDTATYYCATPGGYPFHFDYWGQGTMVTVSS VL: QPVLTQSPSASASLGASVKLTCTLNSQFSTYNIGWYQQHRDKPPKYVMFVKGDGGHSKADGIPDRFSGSSSGADRYLTISNIQAEDEAIYFCGADYNNAGQYGCVFGSGTHFTVLG | 2.5 nM | – | 474 nM | 0.0315 s⁻¹ | 66600 M⁻¹ s⁻¹ | 2.63 nM | 0.00063 s⁻¹ | 241000 M⁻¹ s⁻¹
